Reference: article PMC10870823 (mBio, 2023)

Biological target: T1, SARS-CoV-2 (Wuhan / WA-1) Spike RBD-mouse IgG2a Fc fusion protein (SARS-CoV-2, UniProt P0DTC2)
T1 construct: source: recombinant, purified
Assay: BLI
Settings: both partners purified

B1: FG-10A3 (Family G clone 10A3) human anti-SARS-CoV-2 Spike RBD monoclonal antibody (antibody, V domains shown)
VH: QVQLVESGGGVVQPGRSLRLSCAASGFTFSSYGMNWVRQAPGKGLEWVAIIWYDGNNTYYVDSVKGRFTISRDNSKNTLYLQMNSLRAEDTAVYYCARKDGSKTYYGYYFDYWGQGTLVTVSS
VL: DIQMTQSPSSLSASVGDRVTITCRASQSIHSFLNWYQQKPGKPPNLLIYAASSLQSGLPSRFSGSGSGTDFTLTISSLQPEDFATYYCQQSYITPPTFGHGTKVEIK
notes: also called Family G (FG)-10A3
Kd: 0.125 nM
